Tests used:
Impα3 [1] = molecular target: T1, Impα3 (Homo sapiens, UniProt O00629); assay: Steady-state fluorescence, complex versus addition spectrum, Impα3; type: binding; details: 20 µM PADI4 or peptide, 2 µM Impα3; 50 mM sodium phosphate pH 7.0, 25 °C; excitation 280 or 295 nm; triplicates
T1 construct: made in house
T1 sequence (O00629 1-521): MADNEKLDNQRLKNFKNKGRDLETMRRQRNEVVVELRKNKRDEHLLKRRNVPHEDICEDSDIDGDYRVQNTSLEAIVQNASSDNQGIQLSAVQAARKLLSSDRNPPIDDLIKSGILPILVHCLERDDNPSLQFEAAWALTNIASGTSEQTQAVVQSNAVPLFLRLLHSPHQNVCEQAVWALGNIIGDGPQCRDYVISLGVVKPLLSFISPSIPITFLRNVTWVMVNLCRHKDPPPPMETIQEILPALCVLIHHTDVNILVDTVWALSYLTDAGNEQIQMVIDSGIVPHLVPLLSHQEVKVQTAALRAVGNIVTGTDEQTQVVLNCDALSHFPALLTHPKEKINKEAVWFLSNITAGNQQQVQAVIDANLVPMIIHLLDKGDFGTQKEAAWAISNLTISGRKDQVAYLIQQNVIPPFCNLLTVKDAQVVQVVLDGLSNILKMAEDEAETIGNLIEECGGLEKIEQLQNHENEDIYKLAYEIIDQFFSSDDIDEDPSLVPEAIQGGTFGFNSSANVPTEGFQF
Experimental: Spectra were collected on a Cary Varian spectrofluorometer (Agilent, Santa Clara, CA, USA), interfaced with a Peltier unit. Following the standard protocols used in our laboratories, the samples were prepared the day before and left overnight at 5 °C; before experiments, samples were left for 1 h at 25 °C, where experiments were acquired. A 1 cm pathlength quartz cell (Hellma, Kruibeke, Belgium) was used. The concentration of PADI4 or NLS1/2-PADI4 peptides was 20 µM, and that of each importin species was 2 µM. Samples containing the corresponding isolated peptides, the isolated PADI4, the isolated corresponding importin species, and the corresponding mixtures (at the concentrations indicated above) were prepared. Experiments were performed with samples in 50 mM sodium phosphate buffer, pH 7.0. Fluorescence experiments were repeated in triplicates with newly prepared samples. Variations of results among the experiments were lower than 5%.
Polypeptide samples were excited either at 280 or 295 nm (although NLS2-PADI4 has only a single […]). The other experimental parameters used in the experiments have been described elsewhere. Appropriate blank corrections were made in all spectra.

Impα3 [2] = molecular target: T1, Impα3; assay: Fluorescence titration of PADI4 with Impα3; type: binding; details: fluorescence at 330 nm; 3 µM PADI4, 0–25 µM importin; 20 mM Tris pH 7.5, 5 mM TCEP, 150 mM NaCl, 5% glycerol, 25 °C; titration repeated three times; ± fitting error
Experimental: (§1) For the titration between either Impα3 or ΔImpα3 and intact PADI4, increasing amounts of the corresponding importin species, in the concentration range 0–25 µM, were added to a solution with a fixed concentration of intact PADI4 (3 µM). Experiments were carried out in 20 mM Tris buffer (pH 7.5), 5 mM TCEP, 150 mM NaCl, and 5% glycerol at 25 °C (the storage buffer of PADI4). The experimental setup was the same as in the steady-state fluorescence experiments. Blank corrections containing the amount of each importin species were subtracted. Inner-filter effects were corrected. Each titration (Impα3 with PADI4 or ΔImpα3 with PADI4) was repeated three times, using new samples. In the three cases, the variations in the results were lower than 10%.
(§2) Handling and preparation of samples were the same described in Section 2.4.1. The dissociation constant of the corresponding complex, Kd, was calculated by fitting the binding isotherm to the general binding model, explicitly considering ligand depletion. […] Fitting to Equation (1) was carried out using KaleidaGraph (Synergy software, Reading, PA, USA).

Impα3 [3] = molecular target: T1, Impα3; assay: Isothermal titration calorimetry (ITC), Impα3; type: binding
Experimental: (§3) Calorimetric titrations for testing the interaction of PADI4, as well as for the interaction of NLS1/2-PADI4 peptides, with both importins, Impα3 and ΔImpα3, were carried out in an Auto-iTC200 automated high-sensitivity calorimeter (MicroCal, Malvern-Panalytical, Malvern, UK). Experiments were performed in 20 mM Tris buffer (pH 7.5), 5 mM TCEP, 150 mM NaCl, and 5% glycerol at 25 °C. PADI4 or the peptide solution (100 μM) in the injection syringe was titrated into the importin solution (10 μM) in the calorimetric cell. The remaining experimental and processing details have been described previously. Due to the presence of glycerol in solution, background injection (included as an adjustable parameter in data fitting) was rather large. The data analysis was conducted in Origin 7.0 (OriginLab, Northampton, MA, USA) with user-defined fitting functions.

Impα3 [4] = molecular target: T1, Impα3; assay: Far-UV CD, complex versus addition spectrum, Impα3; type: binding; details: 25 °C; average of six scans
Excerpt: Far-UV CD spectra were collected on a Jasco J810 spectropolarimeter (Jasco, Tokyo, Japan) interfaced with a Peltier unit. The instrument was periodically calibrated with (+)-10-camphorsulfonic acid. A cell of path length 0.1 cm was used (Hellma, Kruibeke, Belgium). All spectra were corrected by subtracting the corresponding baseline. Concentration of each polypeptide (importin species and either NLS1/2-PADI4 or PADI4) and the buffers were the same used in the fluorescence experiments (Section 2.4).
Isothermal wavelength spectra of each isolated macromolecule and that of the complex were acquired as an average of six scans, at a scan speed of 50 nm/min, with a response time of 2 s and a bandwidth of 1 nm. Handling and preparation of samples were the same described in Section 2.4.1.

ΔImpα3 [5] = assay: Fluorescence titration of PADI4 with ΔImpα3; type: binding, human; details: fluorescence at 330 nm; 3 µM PADI4, 0–25 µM importin; 20 mM Tris pH 7.5, 5 mM TCEP, 150 mM NaCl, 5% glycerol, 25 °C; titration repeated three times; ± fitting error
Experimental: as §1, §2

ΔImpα3 [6] = assay: Isothermal titration calorimetry (ITC), ΔImpα3; type: binding, human
Experimental: as §3

[7] = Impα3, pH 7.5, 25 °C, 95% confidence interval in parentheses

In the case of “PADI4: human peptidyl-arginine deiminase 4, intact protein, purified as previously described”, the “change in fluorescence spectrum of complex versus addition spectrum” value (Impα3 [1]) is reported as “a variation in the fluorescence intensity”, the Kd (Impα3 [2]) is reported as 3.9 ± 0.8 µM and the ΔG (Impα3 [3]; Impα3, pH 7.5, 25 °C) is reported as -7.3 kcal/mol. For the same substance, the “n (binding stoichiometry or percentage of binding-competent protein)” value (Impα3 [3]; [7]) was 0.97 (0.94, 1.00), the “ΔH (binding enthalpy)” value (Impα3 [3]; [7]) was −65.5 (−72.0, −60.5) kcal/mol and the “Ka (association constant)” value (Impα3 [3]; PADI4 or peptide (100 μM) titrated into Impα3 (10 μM), 20 mM Tris pH 7.5, 5 mM TCEP, 150 mM NaCl, 5% glycerol, 25 °C, 95% confidence interval in parentheses) was 2.1 (1.7, 2.5) 10^5 M^−1. The Kd (Impα3 [3]; PADI4 or peptide (100 μM) titrated into Impα3 (10 μM), 20 mM Tris pH 7.5, 5 mM TCEP, 150 mM NaCl, 5% glycerol, 25 °C, 95% confidence interval in parentheses, read-out: Kd (dissociation constant)) was 4.8 µM, the “change in far-UV CD spectrum of complex versus addition spectrum” value (Impα3 [4]) was “the addition spectrum was not very different from that of the complex” and the Kd (ΔImpα3 [5]) was 6 ± 1 µM. The “Ka (association constant)” value (ΔImpα3 [6]; PADI4 or peptide (100 μM) titrated into ΔImpα3 (10 μM), 20 mM Tris pH 7.5, 5 mM TCEP, 150 mM NaCl, 5% glycerol, 25 °C, 95% confidence interval in parentheses) was 7.8 (7.3, 8.5) 10^5 M^−1, the Kd (ΔImpα3 [6]; PADI4 or peptide (100 μM) titrated into ΔImpα3 (10 μM), 20 mM Tris pH 7.5, 5 mM TCEP, 150 mM NaCl, 5% glycerol, 25 °C, 95% confidence interval in parentheses, read-out: Kd (dissociation constant)) was 1300 nM and the “-TΔS” value (ΔImpα3 [6]; ΔImpα3, pH 7.5, 25 °C) was -30.4 kcal/mol. For the same substance, the ΔG (ΔImpα3 [6]; ΔImpα3, pH 7.5, 25 °C) was -8.0 kcal/mol.

Source: article PMC9319256, “Human Enzyme PADI4 Binds to the Nuclear Carrier Importin α3” (Cells, 2022)
